PMC10604876, “Development of Anti-OSCAR Antibodies for the Treatment of Osteoarthritis” (Biomedicines, 2023)

Columns and labels:
[1] = target: anti-OSCAR antibody D11, human IgG1; experiment: BLI; Octet; IgG (5 ug/mL) captured on FAB2G sensor; 4.69-75 nM hOSCAR-Fc or mOSCAR-Fc (two-fold serial dilution) in PBST; 1:1 Langmuir model
[2] = target: T1, mouse OSCAR extracellular domains fused to human IgG1 Fc (Mus musculus (Mouse)., UniProt Q8VBT3); experiment: ELISA; serial dilution ELISA of IgG-format antibodies against hOSCAR-Fc and mOSCAR-Fc; EC50; details: both partners purified
T1 construct: osteoclast-associated receptor (OSCAR), mouse, extracellular domains 'corresponding' to amino acids 19-233 of human OSCAR; also called mOSCAR-Fc; mOSCAR; source: FreeStyle 293F, transfected (pVITRO1), secreted, purified (Protein G-Sepharose)

[3] = target: T1, mouse OSCAR extracellular domains fused …; experiment: BLI; Octet; IgG (5 ug/mL) captured on FAB2G sensor; 4.69-75 nM hOSCAR-Fc or mOSCAR-Fc (two-fold serial dilution) in PBST; 1:1 Langmuir model; details: both partners purified
[4] = target: T2, human OSCAR extracellular domains fused to human IgG1 Fc (human) (UniProt Q8IYS5); experiment: ELISA; serial dilution ELISA of IgG-format antibodies against hOSCAR-Fc and mOSCAR-Fc; EC50
T2 sequence: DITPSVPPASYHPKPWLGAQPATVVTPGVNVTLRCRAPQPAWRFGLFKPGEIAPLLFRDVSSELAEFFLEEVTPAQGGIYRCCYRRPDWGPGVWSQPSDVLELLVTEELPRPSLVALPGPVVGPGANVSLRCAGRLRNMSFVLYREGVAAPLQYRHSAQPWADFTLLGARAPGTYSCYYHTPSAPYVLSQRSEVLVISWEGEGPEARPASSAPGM

[5] = target: T3, human OSCAR extracellular domains fused to human IgG1 Fc (Homo sapiens, UniProt Q8IYS5-2); experiment: as above; details: both partners purified
T3 construct: osteoclast-associated receptor (OSCAR), human, extracellular domains, amino acids 19-233; also called hOSCAR-Fc; hOSCAR; source: FreeStyle 293F, transfected (pVITRO1), secreted, purified (Protein G-Sepharose)

[6] = target: T3, human OSCAR extracellular domains fused …; experiment: as above; details: both partners purified; remark: listed apart in the source
[7] = target: T3, human OSCAR extracellular domains fused …; experiment: BLI; Octet; IgG (5 ug/mL) captured on FAB2G sensor; 4.69-75 nM hOSCAR-Fc or mOSCAR-Fc (two-fold serial dilution) in PBST; 1:1 Langmuir model; details: both partners purified

T1 sequence (Q8VBT3 19-231): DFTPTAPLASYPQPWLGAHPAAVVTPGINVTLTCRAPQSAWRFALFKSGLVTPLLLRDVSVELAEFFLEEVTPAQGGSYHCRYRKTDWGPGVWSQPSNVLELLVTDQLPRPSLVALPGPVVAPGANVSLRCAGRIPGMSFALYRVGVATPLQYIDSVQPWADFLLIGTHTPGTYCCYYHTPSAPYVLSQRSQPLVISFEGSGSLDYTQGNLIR

Row | Binder | Kd [1] | koff [1] | kon [1] | EC50 [2] | Kd [3] | koff [3] | kon [3] | EC50 [4] | EC50 [5] | EC50 [6] | Kd [7] | koff [7] | kon [7]
1 | human OSCAR extracellular domains fused to human IgG1 Fc (Fc fusion) DITPSVPPASYHPKPWLGAQPATVVTPGVNVTLRCRAPQPAWRFGLFKPGEIAPLLFRDVSSELAEFFLEEVTPAQGGIYRCCYRRPDWGPGVWSQPSDVLELLVTEELPRPSLVALPGPVVGPGANVSLRCAGRLRNMSFVLYREGVAAPLQYRHSAQPWADFTLLGARAPGTYSCYYHTPSAPYVLSQRSEVLVISWEGEGPEARPASSAPGM | 5.61 nM | 0.000512 s⁻¹ | 91300 M⁻¹ s⁻¹ |  |  |  |  |  |  |  |  |  | 
2 | anti-OSCAR antibody D11, human IgG1 (antibody, V domains shown, VH before CDR-H3 (clone from a synthetic human scFv library); rest of VH after CDR-H3 and the human IgG1 constant region; light chain of D11; IgG1; Only the CDR-H3 is printed; also called D11 (parent); D11 IgG; source: ExpiCHO, transfected (pcIW3.3), secreted, purified (Protein G)) VH: EVQLLESGGGLVQPGGSLRLSCAASGFTFSDYYWTWVRQAPGKGLEWVSGSPVFGAANYAQNFQGRFTISRDNSKNTLYLQMNSLRAEDTAVYYCAKAGFTGGHFDIWGQGTLVTVSS VL: QSVLTQPPSASGTPGQRVTISCSGSSSNIGNNYVSWYQQLPGTAPKLLIYGNSNRPSGVPNRFSGSKSGTSASLAISGLRSEDEADYYCQSYDSSSWLFGGGTKLTVL |  |  |  | 151 nM | 2.87 nM | 0.000254 s⁻¹ | 91300 M⁻¹ s⁻¹ | > 1000 nM |  |  |  |  | 
3 | anti-OSCAR antibody D11-B9, human IgG1 (affinity-matured variant of D11) (antibody, V domains shown, VH before CDR-H3, as the heavy chain of m3; rest of VH after CDR-H3 and the human IgG1 constant region, as the heavy chain of m3; as the light chain of m3 (only CDR-H3 was randomized); IgG1; Only the CDR-H3 is printed; From NNK randomization of residues H98-99 (Kabat); CDR-H3 is one residue shorter than the parent's; also called D11-4-B9; source: ExpiCHO, transfected (pcIW3.3), secreted, purified …) VH: EVQLLESGGGLVQPGGSLRLSCAASGFTFSDYYWTWVRQAPGKGLEWVSGSPVFGAANYAQNFQGRFTISRDNSKNTLYLQMNSLRAEDTAVYYCAKAGIPGHFDIWGQGTLVTVSS VL: QSVLTQPPSASGTPGQRVTISCSGSSSNIGNNYVSWYQQLPGTAPKLLIYGNSNRPSGVPNRFSGSKSGTSASLAISGLRSEDEADYYCQSYDSSSWLFGGGTKLTVL |  |  |  | 0.93 nM | 0.22 nM | 2.59e-05 s⁻¹ | 913000 M⁻¹ s⁻¹ |  | 0.93 nM | 36.8 nM | 0.41 nM | 4.15e-05 s⁻¹ | 101000 M⁻¹ s⁻¹
